Experiment: yeast display, Sf9 membrane polyspecificity reagent, FACS + sequencing; frameworks hold sequencing errors
How it was run: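 Galactose-induced (36–48 hours) yeast carrying a synthetic nanobody display library were exposed to 10% biotinylated, detergent-solubilized Sf9 membrane reagent at 4 °C for 1 hour. FACS followed streptavidin microbead enrichment, using low and high (top ~1%) gates for expression (anti-HA) and reagent binding (streptavidin). Colony PCR, MiSeq 2 × 250 sequencing and CDR-length filtering followed. Labels for polyreactivity reflect the gate of origin.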

| Sequence | polyreactivity (PSR sort gate) |
| --- | --- |
| QVQLVESGGGLVQAGGSLRLSCAASGFTFGFYAMGWSRQATGKERELVARISYSGGSTYYADSVKGRFTISRDNAKNTVYLQMNSLKPEDTAVYYCNRGYRRLQEDYWGQGTQVTVSS | high polyreactivity |
| QVQLVESGGGLVQAGGSLRLSCAASGFTFGFYAMGWYRQAPGKERELVAAITSGGGTTYYADSVKGRFTISRDNAKNTVYLQMNSLKPEYTAVYYCNADPDVPFFSWLTGRGTYDYWGQGTQVTVSS | low polyreactivity |
| QVQLVESGGGLVQAGGSLRLSCAASGFTFGGNDMGWYRQAPGKERELVAAISWSGGSTYYADSVKGRFTISRDNAKNTVYLLMNSLKPEDTAVYYCAADYYYGKVHFDYWGQGTQVTVSS | low polyreactivity |
| QVQLVESGGGLVQAGGSLRLSCAASGFTFGGNVMGWYRQAPGKESELVAAITYSGGSTNYADSVKGRFTISRDNAKNTVYLQMNSLKPEDTAVYYCAAGYSYVYWSESAYVYWGQGTQVSVSS | low polyreactivity |
| QVQLVESGGGLVQAGGSLRLSCAASGFTFGGYAMGWYRQAPGKERELVAAISGRGGRTYYADSVKGRFTISRDNAKNTVYLQMNSLKPEDTAVYYCAAPTNHWTRLSGDYWGQGTQVTVSS | high polyreactivity |
| QVQLVESGGGLVQAGGSLRLSCAASGFTFGGYAMGWYRQAPGNERELVAAISKSGGRTYYADSVKGRFTISRDNAKNTVYLQMNSLKPEDTAVYYCAASTIWHYDSWGQGTQVTVSS | high polyreactivity |
| QVQLVESGGGLVQAGGSLRLSCAASGFTFGKYCMGWYRQAPGKERELVAAISASGGITYYADSVKGRFTISRDNAKNTVYLQMNSLKPEDTAVYYCAARRYEPKAVYYWGQGTQVTVSS | high polyreactivity |
| QVQLVESGGGLVQAGGSLRLSCAASGFTFGKYGMGWYRQAPGKERELVAAISASGGITYYADSVKGRFTISRDNAKNTVYLQMNSLKPEDTAVYYCAVRRRYGAFISYDYWGQGTQVTVSS | high polyreactivity |
| QVQLVESGGGLVQAGGSLRLSCAASGFTFGKYTMGWYRQAPGKERELVAAISRSGGSTYYADSVKGRFTISRDIAKNTVYFQMNSLKPEDTAVYYCAVDYTYDMDYWGQGTHVTVSS | high polyreactivity |
| QVQLVESGGGLVQAGGSLRLSCAASGFTFGNNAMGWYRQAPGKERELVAGISRTGGRTYYSDSVKGRFTISRDNAKKTVYLKMNSLKPEDTAVYYCNAVSTLYTGYDYWGQGTQVTVSS | high polyreactivity |
| QVQLVESGGGLVQAGGSLRLSCAASGFTFGPYAMGWYRQAPGKERELVAAISQSGGRTSYADSVKGRFTISRDNAKNTVYLQMNSLKPEDTSVYYCAKRAYGYRSIYRMDYWGQGTQVTVSS | high polyreactivity |
| QVQLVESGGGLVQAGGSLRLSCAASGFTFGQYAMGWYRQAPGKERELVAAISWSGGSTYYADSVKGRFTISRDNAKNTVYLQMNSLKPEDTAVYYCGEDLGDYWGQGTQVTVSS | high polyreactivity |
| QVQLVESGGGLVQAGGSLRLSCAASGFTFGRNAMGWYRPAPGKEMELDATISKSGGSTYYEDSVKGRFTISRDNAKNTVYLQMYSLKPEDSAVYYCAARSRRLPGDYWGQATQVTVSS | low polyreactivity |
| QVQLVESGGGLVQAGGSLRLSCAASGFTFGRNAMGWYRQAPGKEREFVAAISKSGTSTYYADSVKGRFTISRDNAKNTVYLQMNSLKPEDTAVYYCARTIYAKRWDFDYWGQGTQVTVSS | low polyreactivity |
| QVQLVESGGGLVQAGGSLRLSCAASGFTFGRNAMGWYRQAPGKERELVARITTGGSTNYADSVKGRFTISRDHAKNTVDLQMNRLKPEDTAVYDCAATYRSLALFWTYGYWGQGTQVTVSS | low polyreactivity |
| QVQLVESGGGLVQAGGSLRLSCAASGFTFGRYAMGWYIQAPGKERELVAAINWSGTSTYYADSVKGRFTISRDNSKNTVYLQLNILKPEDTAVYYCAVRESGYHTTLYYWGQGTQVTVSS | high polyreactivity |
| QVQLVESGGGLVQAGGSLRLSCAASGFTFGRYAMGWYRQAPGKERELVAGITWSGGSTSYADSVKGRFTISRDNAKNTVYLQMNSLKPEDTAVYYCATRARYTRVHGRRYAYDYWGQGTQVTVSS | high polyreactivity |
| QVQLVESGGGLVQAGGSLRLSCAASGFTFGSNAMGWYRQAPGKERELVAAISWSGGRTYYADSVKGRFTISRDNAKNTVYLQMNSLKPEDTAVYYCNKQYVKPWYRGYYYWGQGTQVNVSS | high polyreactivity |
| QVQLVESGGGLVQAGGSLRLSCAASGFTFGSYAMGWYRQAPGKEREFVAAISLGGARTYYADSVKGRFTISRDNAKNTVYLQMNSLKPEYTAVYDCAATVRGVGYRYYYWGQGTQVTVSS | high polyreactivity |
| QVQLVESGGGLVQAGGSLRLSCAASGFTFGSYAMGWYRQAPGKERELVAAISSRGGSTYYADSVKGRFTISRDNAKNTVYLQMNSLKPEDTAVYYCNAGYGYIKQYPDYQSKYDYWGQGTQVTVSS | low polyreactivity |
| QVQLVESGGGLVQAGGSLRLSCAASGFTFGSYVMGWYRQAPGKERELVADISIRGGSTYYADSVKGRFTISRDNSKNTVYLQMNSLKPEDTAVYYCAASYFPFNSGRKVGYWGQGTQVTVSS | low polyreactivity |
| QVQLVESGGGLVQAGGSLRLSCAASGFTFGTYTMGWYRQAPGKERELVAAIRSSGGRTYYADSVKGRFTISRDNAKNTVYLQMNSLKPEDTAVYYCAAVLFGYPRTFGTWYDRYYYWGQGTQVTVSS | high polyreactivity |

| Sequence | polyreactivity (PSR sort gate) |
| --- | --- |
| QVQLVESGGGLVQAGGSLRLSCAASGFTFGTYVMGWYRQAPGKERELVARITYGGGRTYYADSVKGRFTISRDNAKNTVYLQMNSLKPEDTAVYYCNARVTYSRYFKGYNYWGQGTQVTVSS | high polyreactivity |
| QVQLVESGGGLVQAGGSLRLSCAASGFTFGVNAMGWYRQAPGKERELVAAISSSGGRTYYADSVKGRFTISRDNAKNTVYLQMNSLKQEDTAVYYCAARYVYTRGGPLKRDYWGQGTQVTVSS | high polyreactivity |
| QVQLVESGGGLVQAGGSLRLSCAASGFTFGVNAMGWYRQAPGKERELVAVITSGGNTYYADSVKWRFTISRDNAKNTVYLQMNSLKPEDTAVYYCAAYGRASWERDYWGQGTQVTVSS | low polyreactivity |
| QVQLVESGGGLVQAGGSLRLSCAASGFTFGVYAMGWYRQAPGKERELVAAISRSSGRTYYADSVKGRFTISRDNAKNTVYLQMNSLKPVDTAVYYCAADLRYYGYYTRFRYYEMDYWGQGTQVTVSS | high polyreactivity |
| QVQLVESGGGLVQAGGSLRLSCAASGFTFGVYAMGWYRQAPGKERELVAAISTTVGSTYYADSVKGRFTISRDNAKNTVYLQMNSLKPEDTAVYDCAAEYTGYINYYIYEYWGQGTQVTVSS | low polyreactivity |
| QVQLVESGGGLVQAGGSLRLSCAASGFTFGVYAMGWYRQAPGKERELVAAITSGGGRTYADSVKGRFTISRDNAKNTVYLQMNSLKPEDSAVYYCAAQQGISNGTGVSATNPMDYWGQGTQVTVSS | low polyreactivity |
| QVQLVESGGGLVQAGGSLRLSCAASGFTFGVYAMGWYRQAPGKERELVATISSSGSTNYADSVKGRFTISRDNAKNTVYLQMNSLKPEDSAVYYCAVYYLYRRRQYYYWGQGTKVTVSS | low polyreactivity |
| QVQLVESGGGLVQAGGSLRLSCAASGFTFGVYARGWYRQAPGKERELVAAISRSSGRTYYADSVKWRFTISRDNAKNTVYLQMNSLKPEDTAVYYCAADLRYYGYYTRFRYYEMDYWGQGTQVTVSS | high polyreactivity |
| QVQLVESGGGLVQAGGSLRLSCAASGFTFGWNAMGWYRQAPGKERELVAAITSGGITNYADSVKGRFTISRDNAMNTVYLQMNSLKPEDTAVYYCNARPTSRRSWYYWKGYDYWGQGTQVTVSS | high polyreactivity |
| QVQLVESGGGLVQAGGSLRLSCAASGFTFGYYAMGWYRQAPGKERELVAAINWSGGRTYYADSVKGRFTISRDNAKNTVYLQMNSLKPEDTAVYYCAASSRTKLYYWGQGTQVTVSS | high polyreactivity |
| QVQLVESGGGLVQAGGSLRLSCAASGFTFGYYAMGWYRQAPGKERELVAAISKSGGSTYYADSVKGRFTISRDNAKNTVYLQMNSLKPEDCAVYYCAAIASIRGYYYWGQGTQVNVSS | high polyreactivity |
| QVQLVESGGGLVQAGGSLRLSCAASGFTFGYYAMGWYRQAPGKERELVAAITYSGGSTYYADSVKGRFTISRDNAKNTVYLQMNSLNPEDTAVYYCNAYARRYYYGRWYGEFDYWGQGTQVTLSS | low polyreactivity |
| QVQLVESGGGLVQAGGSLRLSCAASGFTFGYYAMGWYRQAPGKERELVASISWRGGSTYYADSVKGRFTISRDNAKNTVYLQMNSLKPEDTAVYYCATKYTGPYYRTMNYWGQGTQVTVSS | high polyreactivity |
| QVQLVESGGGLVQAGGSLRLSCAASGFTFGYYAMGWYRQAPGKERELVASMTVRGGSTYYADSVKGRFTISRDNAKNTVYLQINSLKPEDTAVYYCAAKRYPTWYPSQRSRYDSWGQGTQVTVSS | high polyreactivity |
| QVQLVESGGGLVQAGGSLRLSCAASGFTFGYYGMGWYRQATGKEMELVAAIDCSGASTYYADSVKGRFTISRDNAKNTVDLQINSLKPEDSAVYYCNADRYLYSLYTYEYDYWGHGTQVTVSS | low polyreactivity |
| QVQLVESGGGLVQAGGSLRLSCAASGFTFHGYAMGWYRQAPGKERELVAAIRSGDRTYYADSVKGRFTISRDNAKNTVYLQMNSLKPEDTAVYYCAVVYGYLYRYSAKYDYWGQGTQVTVSS | low polyreactivity |
| QVQLVESGGGLVQAGGSLRLSCAASGFTFHKNAMGWYRQAPGKERELVAGISRRAGSTYYADSVKGRFTISRDNAKNTVYLQMNSLKPEDTAVYYCATDRARTGALYYWGQGTQVTVSS | high polyreactivity |
| QVQLVESGGGLVQAGGSLRLSCAASGFTFHKYAMGWYRQAPGKERELVAAITSSGGSTYYADSVKGRFTISRDNAKNTVYLQMNSLKPEDTAVYYCNARGGGRKSYDYWGQGTQVTVSS | high polyreactivity |
| QVQLVESGGGLVQAGGSLRLSCAASGFTFHRNAMGWYRQAPGKERELVAAISTRGGSTAYADSVKGRFTISRDNAKNTVYLQMNSLKPEDTAVYYCNTRYVGQRSTWVDQVRRYDYWGQGTQVTVSS | high polyreactivity |
| QVQLVESGGGLVQAGGSLRLSCAASGFTFHRNAMGWYRQAPGKERELVAAISTRGGSTAYADSVKGRFTISRDTAKNNVYLQMNSLKPEDTAVYYCNTRYVGQRSTWVDQVRRYDYWGQGTQVTVSS | high polyreactivity |
| QVQLVESGGGLVQAGGSLRLSCAASGFTFHWNAMGWYRPAPGKERELVAVITSGGSTNYADSVKGRFTISRDNAKNTVYLQMNSLKPEDTAVYYCAKEDGYSQLKTTFDEPGYGSWGQGTQVTVSS | low polyreactivity |
